The results in this text go back to the Human Domainome abundance scans (Beltran et al. 2025).

± gives the uncertainty stated by the source.

B1: Protein maelstrom homolog, residues 3 to 71; numbered along this chain, Q96JY0 (parent)
chain: NRKASRNAYYFFVQEKIPELRRRGLPVARVADAIPYCSSDWALLREEEKEKYAEMAREWRAAQGKDPGP

The variants in the data set derive from B1. The experiment in a line: abundance fitness (aPCA) (normalised: wild type 0, dead -1); higher = more abundant; growth selection in yeast, the domain comes from the species named. The following applies: Homo sapiens.
For the variant NRKASRNAYYFFVQEKIPELRRRGLPVARVADAIPYCSQDWALLREEEKEKYAEMAREWRAAQGKDPGP [S39Q], the abundance fitness was 0 ± 0.086. For the variant NRKASRNAYYFFVQEKIPELRRRGLPVARVADAIPYCSTDWALLREEEKEKYAEMAREWRAAQGKDPGP [S39T], the abundance fitness was found to be 0.132 ± 0.074. Take NRKASRNAYYFFVQEKIPELRRRGLPVARVADAIPYCSVDWALLREEEKEKYAEMAREWRAAQGKDPGP [S39V]: the abundance fitness is -0.164 ± 0.074. With NRKASRNAYYFFVQEKIPELRRRGLPVARVADAIPYCSSDWANLREEEKEKYAEMAREWRAAQGKDPGP [L43N], the abundance fitness was 0.252 ± 0.21. As to NRKASRNAYYFFVQEKIPELRRRGLPVARVADAIPYCSSDWAKLREEEKEKYAEMAREWRAAQGKDPGP [L43K], the abundance fitness is -0.02 ± 0.097. NRKASRNAYYFFVQEKIPELRRRGLPVARVADAIPYCSSDWAQLREEEKEKYAEMAREWRAAQGKDPGP [L43Q]: the abundance fitness was found to be 0.151 ± 0.074.

On to NRKASRNAYYFFVQEKIPELRRRGLPVARVADAIPYCSSDWAVLREEEKEKYAEMAREWRAAQGKDPGP [L43V], for which the abundance fitness stood at 0.006 ± 0.035. With NRKASRNAYYFFVQEKIPELRRRGLPVARVADAIPYCSSDWAWLREEEKEKYAEMAREWRAAQGKDPGP [L43W], the abundance fitness was -0.287 ± 0.063. NRKASRNAYYFFVQEKIPELRRRGLPVARVADAIPYCSSDWAHLREEEKEKYAEMAREWRAAQGKDPGP [L43H]: the abundance fitness worked out at 0.078 ± 0.16. For the variant NRKASRNAYYFFVQEKIPELRRRGLPVARVADAIPYCSSDWAPLREEEKEKYAEMAREWRAAQGKDPGP [L43P], the abundance fitness is -0.477 ± 0.077. Take NRKASRNAYYFFVQEKIPELRRRGLPVARVADAIPYCSSDWAYLREEEKEKYAEMAREWRAAQGKDPGP [L43Y]: the abundance fitness is 0.086 ± 0.14. For the variant NRKASRNAYYFFVQEKIPELRRRGLPVARVADAIPYCSSDWARLREEEKEKYAEMAREWRAAQGKDPGP [L43R], the abundance fitness is 0.158 ± 0.044. For NRKASRNAYYFFVQEKIPELRRRGLPVARVADAIPYCSSDWAALREEEKEKYAEMAREWRAAQGKDPGP [L43A] the value was 0.106 ± 0.073; for NRKASRNAYYFFVQEKIPELRRRGLPVARVADAIPYCSSDWAGLREEEKEKYAEMAREWRAAQGKDPGP [L43G], 0.064 ± 0.046; for NRKASRNAYYFFVQEKIPELRRRGLPVARVADAIPYCSSDWAELREEEKEKYAEMAREWRAAQGKDPGP [L43E], 0.102 ± 0.05.

Take NRKASRNAYYFFVQEKIPELRRRGLPVARVADAIPYCSSDWAMLREEEKEKYAEMAREWRAAQGKDPGP [L43M]: the abundance fitness is -0.098 ± 0.078. The same measure for NRKASRNAYYFFVQEKIPELRRRGLPVARVADAIPYCSSDWATLREEEKEKYAEMAREWRAAQGKDPGP [L43T]: -0.108 ± 0.088; for NRKASRNAYYFFVQEKIPELRRRGLPVARVADAIPYCSSDWAILREEEKEKYAEMAREWRAAQGKDPGP [L43I]: -0.16 ± 0.24; for NRKASRNAYYFFVQEKIPELRRRGLPVARVADAIPYCSSDWACLREEEKEKYAEMAREWRAAQGKDPGP [L43C]: -0.176 ± 0.11. For the variant NRKASRNAYYFFVQEKIPELRRRGLPVARVADAIPYCSSDWASLREEEKEKYAEMAREWRAAQGKDPGP [L43S], the abundance fitness is 0.094 ± 0.058.

In the case of NRKASRNAYYFFVQEKIPELRRRGLPVARVADAIPYCSSDWAFLREEEKEKYAEMAREWRAAQGKDPGP [L43F], the abundance fitness is -0.473 ± 0.26. With NRKASRNAYYFFVQEKIPELRRRGLPVARVADAIPYCSSDWADLREEEKEKYAEMAREWRAAQGKDPGP [L43D], the abundance fitness was 0.277 ± 0.1. With NRKASRNAYYFFVQEKIPELRRRGLPVARVADAIPYCSSDSALLREEEKEKYAEMAREWRAAQGKDPGP [W41S], the abundance fitness is -0.888 ± 0.069.

Turning to NRKASRNAYYFFVQEKIPELRRRGLPVARVADAIPYCSSDMALLREEEKEKYAEMAREWRAAQGKDPGP [W41M], the abundance fitness is -0.886 ± 0.21. For NRKASRNAYYFFVQEKIPELRRRGLPVARVADAIPYCSSDLALLREEEKEKYAEMAREWRAAQGKDPGP [W41L], the abundance fitness is -0.941 ± 0.086. For NRKASRNAYYFFVQEKIPELRRRGLPVARVADAIPYCSSDYALLREEEKEKYAEMAREWRAAQGKDPGP [W41Y], the abundance fitness was -0.394 ± 0.14. For NRKASRNAYYFFVQEKIPELRRRGLPVARVADAIPYCSSDFALLREEEKEKYAEMAREWRAAQGKDPGP [W41F], the abundance fitness is -0.284 ± 0.17. Consider NRKASRNAYYFFVQEKIPELRRRGLPVARVADAIPYCSSDQALLREEEKEKYAEMAREWRAAQGKDPGP [W41Q], for which the abundance fitness was -1.1 ± 0.2. Take NRKASRNAYYFFVQEKIPELRRRGLPVARVADAIPYCSSDGALLREEEKEKYAEMAREWRAAQGKDPGP [W41G]: the abundance fitness is -0.784 ± 0.055. As for NRKASRNAYYFFVQEKIPELRRRGLPVARVADAIPYCSSDAALLREEEKEKYAEMAREWRAAQGKDPGP [W41A], the abundance fitness was -0.553 ± 0.075.

As for NRKASRNAYYFFVQEKIPELRRRGLPVARVADAIPYCSSDRALLREEEKEKYAEMAREWRAAQGKDPGP [W41R], the abundance fitness is -0.572 ± 0.054.

NRKASRNAYYFFVQEKIPELRRRGLPVARVADAIPYCSSDNALLREEEKEKYAEMAREWRAAQGKDPGP [W41N]: the abundance fitness was -0.706 ± 0.19.

With NRKASRNAYYFFVQEKIPELRRRGLPVARVADAIPYCSSDVALLREEEKEKYAEMAREWRAAQGKDPGP [W41V], the abundance fitness is -0.682 ± 0.071.

On to NRKASRNAYYFFVQEKIPELRRRGLPVARVADAIPYCSSDIALLREEEKEKYAEMAREWRAAQGKDPGP [W41I], for which the abundance fitness was -0.968 ± 0.3.

Take NRKASRNAYYFFVQEKIPELRRRGLPVARVADAIPYCSSDEALLREEEKEKYAEMAREWRAAQGKDPGP [W41E]: the abundance fitness is -0.813 ± 0.1. For NRKASRNAYYFFVQEKIPELRRRGLPVARVADAIPYCSSDKALLREEEKEKYAEMAREWRAAQGKDPGP [W41K] the value was -0.622 ± 0.078; for NRKASRNAYYFFVQEKIPELRRRGLPVARVADAIPYCSSDTALLREEEKEKYAEMAREWRAAQGKDPGP [W41T], -0.682 ± 0.11; for NRKASRNAYYFFVQEKIPELRRRGLPVARVADAIPYCSSDHALLREEEKEKYAEMAREWRAAQGKDPGP [W41H], -1.1 ± 0.23. For NRKASRNAYYFFVQEKIPELRRRGLPVARVADAIPYCSSDPALLREEEKEKYAEMAREWRAAQGKDPGP [W41P], the abundance fitness was -0.572 ± 0.1.
